Reference: the supplement of paper PMC10126150
± gives the standard deviation of the averaged measurements.

Tested on: ATP
Assay: switch fluorescence ratio, 500 uM ATP over buffer (Cy3 cluster intensity, sum of 5 cycles each) (fold (ratio)); higher = stronger signal-on switching upon ATP binding; sequences stand for … in TCGTCGGCAGCGTCAGATGTGTATAAGAGACAGTTTTTTTTTTTTTTTTTTTTTTTTT…TC
Settings: aptamer strand: ATP DNA aptamer (quencher-CACCTGGGGGAGTATTGCGGAGGAAGG + anchor), 100 nM annealed; ATP concentration: 500 uM
Method in brief: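 Clusters carrying Cy3-labelled switching strands on a modified Illumina MiSeq flow-cell were annealed to 100 nM quencher-labelled ATP aptamer and imaged in selection buffer. They were imaged again after 15 min with 500 uM ATP at 22 °C, over five buffer/ATP cycles with NaOH stripping and re-annealing in between. For each cluster, the fluorescence ratio is the summed Cy3 intensity of the target cycles divided by that of the buffer cycles, averaged per switch-domain sequence. Clusters outside 100-1000 RFU were left out.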
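Further: ATP exposure 15 min at 22 °C before imaging.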

Sequence | switch fluorescence ratio
GGGTCCAAGG | 1.03 ± 0.029
GCCAACGGGG | 1 ± 0.028
GGAGTACTGT | 1.02 ± 0.013
AATGACAGGG | 0.988 ± 0.02
GGGAGTTGGA | 1.02 ± 0.024
GGTGGGTACG | 0.986 ± 0.052
CAAGGAAACG | 1.002 ± 0.0034
TCATAGAGTA | 1.02 ± 0.018
TGCTCGTGCT | 1.01 ± 0.028
ATAGACTTTA | 1.04 ± 0.043
CTGGCAGGAA | 1.01 ± 0.051
GGGTGTGCGG | 0.972 ± 0.038
ACCGTCTCAG | 1.05 ± 0.026
AATGGATATG | 1.02 ± 0.058
TTTTTGTGAT | 1.02 ± 0.032
TCTAGAACGC | 1.01 ± 0.013
TTTTTAAATA | 0.986 ± 0.023
GAATGCATTT | 1.02 ± 0.038
GGAAGGCGGC | 1.08 ± 0.071
GGCTAAGGTT | 0.997 ± 0.015
TCCATTTTGT | 1.01 ± 0.05
GGGTTAGAGA | 0.9668 ± 0.0032
GTTTGCGACT | 0.998 ± 0.067
ATTGTAGGGA | 1 ± 0.015
CAAGGTTATG | 0.974 ± 0.013

Sequence | switch fluorescence ratio
CGTATACTGA | 1.01 ± 0.055
TTAGGCCGGC | 0.988 ± 0.11
TTGAAATGTT | 0.9923 ± 0.0033
GCTTTTCTTG | 1.01 ± 0.011
GGTATTGGCC | 0.987 ± 0.013
ATCGAGGGGA | 0.978 ± 0.019
AATTAGCTGT | 0.9743 ± 0.0085
TTTTTTGTTT | 1 ± 0.029
TCTGGTTAGC | 1.03 ± 0.026
GGGGGGGGCA | 0.985 ± 0.024
TAACCCGGTT | 0.999 ± 0.042
ACGGTCAGTC | 1.05 ± 0.077
ATATGGATTA | 1.012 ± 0.0068
TGAGGGAGCA | 1.01 ± 0.11
TGCTAGCTAT | 1.02 ± 0.0029
TGGGAGTAGC | 0.9907 ± 0.0091
CATGATGTGT | 1 ± 0.042
ACACCCTTGG | 1.08 ± 0.098
CTAAAAGTGT | 0.989 ± 0.034
GTTCATAAAG | 0.98 ± 0.028
TTAAGTTCTT | 0.996 ± 0.019
TAGTGAAGTC | 1.02 ± 0.073
TGGGACAGCG | 0.957 ± 0.031
ATCAGCAGGC | 1.6 ± 0.045
CACTATTAGT | 0.979 ± 0.01

Sequence | switch fluorescence ratio
ATAGTAGTCG | 1.03 ± 0.1
CCGAGAGGGG | 0.999 ± 0.041
TGTGGGGGAG | 1.03 ± 0.035
GGGCCCGTAT | 1.014 ± 0.0091
GCTTATCAGC | 0.991 ± 0.013
CAATACAGTC | 1.03 ± 0.011
GTTAACGTTT | 0.982 ± 0.036
TTTGCGGTTT | 1.02 ± 0.046
TATTTGTGCT | 0.982 ± 0.011
GTTCTTGTAA | 1.017 ± 0.0088
AGAGGGTTAC | 0.999 ± 0.036
ATCAGGTTCT | 1.028 ± 0.0031
TTTAATTAGG | 1.03 ± 0.028
TAAATGGTCC | 1.073 ± 0.0063
AAGGTGTTGG | 1.04 ± 0.021
ATGGCGAGGG | 0.989 ± 0.017
TTTGACTTAG | 1.02 ± 0.043
ACGCATTTGG | 1.1159 ± 0.00088
GCGAGGGCAA | 1.72 ± 0.052
TATGTTTGAA | 0.984 ± 0.015
GGGTTTGGCG | 0.999 ± 0.2
TTTTAACCTG | 1.01 ± 0.046
TTTATGAAAG | 0.97 ± 0.05
GATGTGGGTA | 0.992 ± 0.045
CCTTGACGGG | 1.18 ± 0.17

Sequence | switch fluorescence ratio
TGGGATCAGT | 0.99 ± 0.021
CGGAGGGGAG | 0.977 ± 0.011
GGCCTATGTC | 1.04 ± 0.011
ATTCGAATGT | 0.9994 ± 0.0013
TTTTTAAATC | 1 ± 0.044
GTGTCCATTG | 0.998 ± 0.074
ACCACGAATG | 1.025 ± 0.0051
AGGAGATACC | 1.03 ± 0.049
GCCGGGACTA | 1.01 ± 0.024
AAGCGGGGGT | 1.02 ± 0.026
CCTGAGTTC | 0.996 ± 0.031
GATTAGTGTT | 1.01 ± 0.021
TTTGGAACAT | 1.01 ± 0.042
TAGGTGGACT | 1.01 ± 0.042
ACAGGTATTA | 0.996 ± 0.017
CGATAGGTAC | 1.22 ± 0.027
GTCGTGGCAA | 1.04 ± 0.022
TGGGGAATTG | 0.969 ± 0.053
GCGGTGAGGG | 0.993 ± 0.052
CTGAGGTATG | 1.023 ± 0.0057
GAGAAGTTAG | 1.02 ± 0.023
ATCGGGGGTT | 0.987 ± 0.023
CGGCACGTTA | 1.06 ± 0.025
TGTTTCGGAA | 1.02 ± 0.038
AGAGTTTTCT | 0.9916 ± 0.0094
